According to patent US20180371429:
Substitutions are numbered along the chain they refer to.

T1: α-fructosyl-valyl-histidyl-leucyl-threonyl-prolyl-glutamyl-glutamyl-lysine (not fully specified)
T1 chain: VHLTPEEK

B1: CFP-T7-H38-V (protein)
chain: MTSNRADTRVIVVGGGGTIGSSTALHLVRSGYAPANITVLDTFEIPSAQSAGHDLNKIMGIDHVNKVNLQMSLEARQMWKEDELFQPFFHNTGRMDCEHTPKGIEKLKKLYQKLHDAGAGLEKTHAWLDNEDEILSKMPLLQRDQIQGWKAIWSQDGGWLAAAKAINAIGQFLKERGVKFGFGGAGSFKQPLFDDEGTTCIGVETADGTKYYADKVVLAAGAWSPTLVDLEDQCCSKAWVYAHIQLTPEEAAEYKGVPVVYNGEFGFFFEPDEFGVIKVCDEFPGFSRFKEHQPYGAPSPKRISVPRSHAKHPTDTYPDASEVSIKKAIATFLPRFQDKELFNRALCWCTDTADSTLLMCEHPKWKNFILATGDSGHSFKILPNVGKYVVELIEGRLPEEMAYQWRWRPGGDALKSRRAAPPKDLADMPGWKHDPKL
B2: CFP-T7-H38-S (protein)
chain: B1 chain with V64S
B3: CFP-T7-H38-GYS (protein)
chain: B1 chain with V64G, H99S, L110Y
B4: CFP-T7-H37 (protein)
chain: B1 chain with V64R
B5: CFP-T7-H38-GH (protein)
chain: B1 chain with V64G, L110H
B6: CFP-T7-H38-GY (protein)
chain: B1 chain with V64G, L110Y
B7: CFP-T7-H38-G (protein)
chain: B1 chain with V64G
B8: CFP-T7-H38-A (protein)
chain: B1 chain with V64A
B9: CFP-T7-H38-GF (protein)
chain: B1 chain with V64G, L110F
B10: CFP-T7-H38-T (protein)
chain: B1 chain with V64T
B11: CFP-T7-H38-M (protein)
chain: B1 chain with V64M
B12: CFP-T7-H38-I (protein)
chain: B1 chain with V64I
B13: CFP-T7-H38-L (protein)
chain: B1 chain with V64L
B14: CcFX-62D/63H/102K/106K (protein)
chain: MAPSRANTSVIVVGGGGTIGSSTALHLVRSGYTPSNITVLDTYPIPSAQSAGNDLNKIMGIDHRNKVDLQLSLEARQMWREDDLFKEYFHNTGRLDCAHGEKGLAKLRQAYQALLDANAGLEETTEWLDSEDEILKKMPLLDREQIKGWKAVYSQDGGWLAAAKAINAIGEYLRAQGVKFGFGGAGSFKQPLLAEGVCIGVETVDGTRYYADKVVLAAGAWSPVLVDLEDQCVSKAWVYAHIQLTPEEAAEYKNVPVVYNGDVGFFFEPDEHGVIKVCDEFPGFTRFKQHQPYGAKAPKRISVPRSAAKHPTDTYPDASEKSIRKAIATFLPKFTEKELFNRHLCWCTDTADAALLMCEHPEWKNFVLATGDSGHTFKLLPNIGKHVVELLEGTLAEDLAHAWRWRPGTGDALKSRRAAPAKDLADMPGWKHDDVVKSKL
B15: CcFX-62D/63H/102K/106K-64T (protein)
chain: B14 chain with R64T
B16: CcFX-62D/63H/102K/106K-64L (protein)
chain: B14 chain with R64L
B17: PnFX-62D/63H/106K/110L/113K/351S (protein)
chain: MAPSRANTSVIVVGGGGTIGSSTALHLVRSGYTPSNVTVLDAYPIPSSQSAGNDLNKIMGVDHRNPVDLQLALEARQMWNEDELFKKFFHNTGRLDCAHGEKDIAKLKSLYQKLVDAGLDATNEWLDSEDEILKRMPLLSRDQIKGWKAIFSKDGGWLAAAKAINAVGEYLRDQGVRFGFYGAGSFKAPLLAEGVCIGVETVDGTRYYADKVVLAAGAWSPTLVELHEQCVSKAWVYGHIQLTPEEAARYKNSPVVYNGDVGFFFEPNEHGVIKVCDEFPGFTRFKMHQPFGAKAPKRISVPRSHAKHPTDTIPDASDVSIRRAIATFMPQFKNKKMFNQAMCWCTDTADSALLICEHPEWKNFVLATGDSGHSFKLLPNIGKHVVELLEGTLADDLAHAWRWRPGSGDALKSRRSAPAKDLADMPGWNHDKPRANL
B18: PnFX-62D/63H/106K/110L/113K/351S-64S (protein)
chain: B17 chain with R64S
B19: CFP-DH2 (protein)
chain: MTSNRADTRVIVVGGGGTIGSSTALHLVRSGYAPANITVLDTFPIPSAQSAGHDLNKIMGIDHRNKVNLQMSLEARQMWKEDELFQPFFHNTGRMDCEHTPKGIEKLKKLYQKLHDAGAGLEKTHAWLDNEDAILSKMPLLQRDQIQGWKAIWSQDGGWLAAAKAINAIGQFLKERGVKFGFGGAGSFKQPLFDDEGTTCIGVETADGTKYYADKVVLAAGAWSPTLVDLEDQCCSKAWVYAHIQLTPEEAAKYKGCPVVYHGEFGFFFEPDEFGVIKVCDEFPGFSRFKEHQPYGAPSPKRISVPRSHAKHPTDTYPDASEVSIKKAIATFLPRFKDKPLFNRALCWCTDTADSTLLMCEHPKWKNFILATGDSGHSFKILPNVGKYVVELIEGRLPEEMAYQWRWRPGGDALKSRRAAPPKDLADMPGWKHD
B20: CFP-DH3 (protein)
chain: B19 chain with R64G
B21: NvFX-62D/63H/106K/110L (protein)
chain: MTTPRKETTVLIIGGGGTIGSSTALHLLRAGYTPSNITVLDTYPIPSAQSAGNDLNKIMGIDHRNKVDLQLSLEARDMWRNDALFRPFFHNTGRLDCESSAEGVEKLRRLYQKLVEAGVGLEETHEWLDSEEAILEKAPLLQREEIEGWKAIWSEEGGWLAAAKAINAIGEELQRQGVRFGFGGAGSFKRPLFADDGTTCIGVETVDGTQYHADKVVLAAGAWSPALVDLEEQCCSKAWVYAHMQLTPEEAAVYKGCPVVYHGDVGFFFEPNENGVIKVCDEFPGFTRFKQHQPYGAPAPKPVSVPRSHAKHPTDTYPDASEESIKRAVSTFLPRFKDKPLFNRALCWCTDTADSALLICEHPRWKNFILATGDSGHSFKLLPIIGKHVVELVEGRLADDLAEAWRWRPGQGDARKSIRAAPAKDLADMPGWKHDQDSESR
B22: NvFX-62D/63H/106K/110L-64S (protein)
chain: B21 chain with R64S
B23: NvFX-62D/63H/106K/110L-64M (protein)
chain: B21 chain with R64M
B24: NvFX-62D/63H/106K/110L-64T (protein)
chain: B21 chain with R64T

Biological target: T1, α-fructosyl-valyl-histidyl-leucyl-threon …

Row | Protein | Specific activity (mU/mg), 10 µM αF8P | Specific activity (U/mg), 1 mM αF8P | fold improvement of specific activity on αF8P against CFP-T7-H37 | fold improvement of specific activity on αF8P against CFP-DH2
1 | B1 | 86 mU/mg | – | – | –
2 | B2 | 89.7 mU/mg | – | – | –
3 | B3 | 196 mU/mg | – | – | –
4 | B4 | 44.4 mU/mg | 4.18 U/mg | – | –
5 | B5 | 143 mU/mg | – | – | –
6 | B6 | 174 mU/mg | – | – | –
7 | B7 | 95.9 mU/mg | 6.33 U/mg | by 1.51 to 1.75 times | –
8 | B8 | – | 3.26 U/mg | – | –
9 | B9 | 145 mU/mg | – | – | –
10 | B10 | 78.7 mU/mg | – | – | –
11 | B11 | 84.4 mU/mg | – | – | –
12 | B12 | 78.7 mU/mg | – | – | –
13 | B13 | 84.3 mU/mg | – | – | –
14 | B14 | 1.3 mU/mg | – | – | –
15 | B15 | 1.5 mU/mg | – | – | –
16 | B16 | 2 mU/mg | – | – | –
17 | B17 | 2 mU/mg | – | – | –
18 | B18 | 2.2 mU/mg | – | – | –
19 | B19 | – | 2.8 U/mg | – | –
20 | B20 | – | 4.9 U/mg | – | by 1.51 to 1.75 times
21 | B21 | 0.3 mU/mg | – | – | –
22 | B22 | 0.37 mU/mg | – | – | –
23 | B23 | 0.42 mU/mg | – | – | –
24 | B24 | 0.38 mU/mg | – | – | –
